Measured values: patent US20140057807A1 (UNIVERSITY OF CHICAGO, published 2014)
Changes are numbered by the printed parent chain.

B1: SEQ ID NO 249 (designed binder)
chain: NVSPPRRARVTDATETTITISWRTKTETITYFGVRAYPTYRSSIQRTIKPDVRSYTITGLQPGTLYRISLYTLDSAGYNPVVIDAST
B2: SEQ ID NO 246 (designed binder)
chain: NVSPPRRARVTDATETTITISWRTKTETITYFYVAADPTEDGKIQRTIKPDVRSYTITGLQPGTYYTIHLRTLYYLVAVPVVIDAST
B3: SEQ ID NO 261 (designed binder)
chain: NVSPPRRARVTDATETTITISWRTKTETITYFKVRAYPAYNYGGWSIQRTIKPDVRSYTITGLQPGTYYSIYLDTLYLGAYWYPVVIDAST
B4: SEQ ID NO 265 (designed binder)
chain: NVSPPRRARVTDATETTITISWRTKTETITYFHVNAQPSSPPWIQRTIKPDVRSYTITGLQPGTYYGISLYTLSWRGEYHPVVIDAST
B5: SEQ ID NO 253 (designed binder)
chain: NVSPPRRARVTDATETTITISWRTKTETITRFYVSAQPRFYYYNIQRTIKPDVRSYTITGLQPGTDYTIGLYTLGVYMHYPVVIDAST
B6: SEQ ID NO 29 (designed binder)
chain: VSSVPTKLEVVAATPTSLLISWDAPAVTVVYYVITYGETGGNSPVQEFTVPGSKSTATISGLSPGVDYTITVYAWYTFQYDYYVTQSSPISINYRT
B7: SEQ ID NO 33 (designed binder)
chain: B6 chain with V30D, V33Y, T77Q, F78H, Q79D, Y80F, Y83H, T85W, Q86G
B8: SEQ ID NO 264 (designed binder)
chain: NVSPPRRARVTDATETTITISWRTKTETITTFRVWARPYLYYWIQRTIKPDVRSYTITGLQPGTHYDIGLSTLSSTWYYPVVIDAST
B9: SEQ ID NO 258 (designed binder)
chain: NVSPPRRARVTDATETTITISWRTKTETITYFSVLAHPLEVSSYSIQRTIKPDVRSYTITGLQPGTGYRIFLSTLRWYYGMPVVIDAST
B10: SEQ ID NO 248 (designed binder)
chain: NVSPPRRARVTDATETTITISWRTKTETITYFGVGADPAMYIEYPYIQRTIKPDVRSYTITGLQPGTQYGIYLTTLSQASDYPVVIDAST
B11: SEQ ID NO 254 (designed binder)
chain: NVSPPRRARVTDATETTITISWRTKTETITYFSVEAYPRWYALIQRTIKPDVRSYTITGLQPGTSYYIYLWTLMMDTSSPVVIDAST
B12: SEQ ID NO 245 (designed binder)
chain: NVSPPRRARVTDATETTITISWRTKTETITDFGVVASPYLGQGIQRTIKPDVRSYTITGLQPGTAYSIKLHTLHVHDYYPVVIDAST
B13: SEQ ID NO 28 (designed binder)
chain: VSSVPTKLEVVAATPTSLLISWDAPAVTVDHYVITYGETGGYPSPVQTFTVPGSKSTATISGLSPGVDYTITVYAWDYDWYAIGSPISINYRT
B14: SEQ ID NO 273 (designed binder)
chain: NVSPPRRARVTDATETTITISWRTKTETITSFWVHAYPSGASGGIQRTIKPDVRSYTITGLQPGTNYGIALATLTHYYTYSPVVIDAST
B15: SEQ ID NO 275 (designed binder)
chain: NVSPPRRARVTDATETTITISWRTKTETITSFYVDAGPWYRPDAYEYIQRTIKPDVRSYTITGLQPGTGYSIQLYTLYAYAYLYPVVIDAST
B16: SEQ ID NO 262 (designed binder)
chain: NVSPPRSARVTDATETTITISWRTKTETITYFVVGAFPAYSAHVDIQRTIKPDVRSYTITGLQPGTGYIINLETLINATGYPVVIDAST
B17: SEQ ID NO 276 (designed binder)
chain: NVSPPRRARVTDATETTITISWRTKTETITLFYVYAYPRYYPGIQRTIKPDVRSYTITGLQPGTSYSIYLSTLWDTKGYPVVIDAST
B18: SEQ ID NO 259 (designed binder)
chain: NVSPPRRARVTDATETTITISWRTKTETITYFSVYANPMYPFYIQRTIKPDVRSYTITGLQPGTYYEIYLGTLYYFATYPVVIDAST
B19: SEQ ID NO 267 (designed binder)
chain: NVSPPRRARVTDATETTITISWRTKTETITWFYVSAFPLLVDGIQRTIKPDVRSYTITGLQPGTYYGINLYTLSSYPVVIDAST
B20: SEQ ID NO 251 (designed binder)
chain: NVSPPRRARVTDATETTITISWRTKTETITEFDVGADPGKGHAIQRTIKPDVRSYTITGLQPGTSYLIGLRTLNRVLHYPVVIDAST
B21: SEQ ID NO 30 (designed binder)
chain: VSSVPTKLEVVAATPTSLLISWDAPAVTVDFYFITYGETGGNSPVQEFTVPGSKSTATISGLSPGVDYTITVYAWDNWDDYYYSPISINYRT
B22: SEQ ID NO 272 (designed binder)
chain: NVSPPRRARVTDATETTITISWRTKTETITAFYVGAHPWYNLEIQRTIKPDVRSYTITGLQPGTGYVISLYTLWHHNEAPVVIDAST
B23: SEQ ID NO 250 (designed binder)
chain: NVSPPRRARVTDATETTITISWRTKTETITQFSVYAYPARSKYHIQRTIKPDVRSYTITGLQPGTGYRIYLQTLGGYSDEPVVIDAST
B24: SEQ ID NO 252 (designed binder)
chain: NVSPPRRARVTDATETTITISWRTKTETITSFRVDAGPGVAGSIQRTIKPDVRSYTITGLQPGTYYQIQLAALAYGYYPVVIDAST
B25: SEQ ID NO 257 (designed binder)
chain: NVSPPRRARVTDATETTITISWRTKTETITTFDVYAYPGYGGSYWSIQRTIKPDVRSYTITGLQPGTSYEIELETLHYSHAYPVVIDAST
B26: SEQ ID NO 255 (designed binder)
chain: NVSPPRRARVTDATETTITISWRTKTETITEFFVMAEPYYGEGYYIQRTIKPDVRSYTITGLQPGTSYSINLYTLKRPYLYPVVIDAST
B27: SEQ ID NO 268 (designed binder)
chain: NVSPPRRARVTDATETTITISWRTKTETITYFYVYAKPRYINSIQRTIKPDVRSYTITGLQPGTDYSIYLDTLYWGGEYGPVVIDAST
B28: SEQ ID NO 263 (designed binder)
chain: NVSPPRRARVTDATETTITISWRTKTETITQFWVLAGPSVWTGRMSIQRTIKPDVRSYTITGLQPGTTYYIGLYTLQYYEYSPVVIDAST
B29: SEQ ID NO 260 (designed binder)
chain: NVSPPRRARVTDATETTITISWRTKTETITYFYVSAYPYYVAYDIQRTIKPDVRSYTITGLQPGTYYDINLSTLSYSDNSPVVIDAST
B30: SEQ ID NO 34 (designed binder)
chain: VSSVPTKLEVVAATPTSLLISWDAPAVTVHYYVITYGETGWWGPVQEFTVPGSKSTATISGLSPGVDYTITVYAYWKYSYKYSPISINYRT
B31: SEQ ID NO 40 (designed binder)
chain: B30 chain with T28Y, V29H, H30Y, Y31V, V33L, W41G, W42N, G43S, Y75K, K81Q
B32: SEQ ID NO 43 (designed binder)
chain: B30 chain with H30V, Y31H, V33H, W41G, W42N, G43S, Y75D, K77Q, K81M
B33: SEQ ID NO 271 (designed binder)
chain: NVSPPRRARVTDATETTITISWRTKTETITSFYVRALPVSAWPIQRTIKPDVRSYTITGLQPGTGYNIGLVTLYYGASYVPVVIDAST
B34: SEQ ID NO 277 (designed binder)
chain: NVSPPRRARVTDATETTITISWRTKTETITTFMVVAYPMFQYRIQRTIKPDVRSYTITGLQPGTSYTIYLQTLGYASWYPVVIDAST
B35: SEQ ID NO 266 (designed binder)
chain: NVSPPRRARVTDATETTITISWRTKTETITRFSVLAYPSKRTTYTPIQRTIKPDVRSYTITGLQPGTGYTIRLYTLSPYYWVYPVVIDAST
B36: SEQ ID NO 269 (designed binder)
chain: NVSPPRRARVTDATETTITISWRTKTETITAFNVYASPEYWRYGYFRFIQRTIKPDVRSYTITGLQPGTGYYIYLYTLYHKYGYYPVVIDAST
B37: SEQ ID NO 274 (designed binder)
chain: NVSPPRRARVTDATETTITISWRTKTETITGFHVFASPWYSGSQSIQRTIKPDVRSYTITGLQPGTTYYIGLNTLYIPGHEPPVVIDAST
B38: SEQ ID NO 256 (designed binder)
chain: NVSPPRRARVTDATETTITISWRTKTETITSFYVMAQPTNYYGQSTYIQRTIKPDVRSYTITGLQPGTYYGIQLYTLMYRASAPVVIDAST
B39: SEQ ID NO 270 (designed binder)
chain: NVSPPRRARVTDATETTITISWRTKTETITAFYVHAVPMLWVVNGIQRTIKPDVRSYTITGLQPGTSYTINLETLRMSSHYYPVVIDAST

Tests used:
human serum albumin = biological target: T1, human serum albumin (human, UniProt P02768 25-609); experiment: cradle library selection hit
T1 construct: also called HSA
T1 sequence (P02768 25-609 limits assumed): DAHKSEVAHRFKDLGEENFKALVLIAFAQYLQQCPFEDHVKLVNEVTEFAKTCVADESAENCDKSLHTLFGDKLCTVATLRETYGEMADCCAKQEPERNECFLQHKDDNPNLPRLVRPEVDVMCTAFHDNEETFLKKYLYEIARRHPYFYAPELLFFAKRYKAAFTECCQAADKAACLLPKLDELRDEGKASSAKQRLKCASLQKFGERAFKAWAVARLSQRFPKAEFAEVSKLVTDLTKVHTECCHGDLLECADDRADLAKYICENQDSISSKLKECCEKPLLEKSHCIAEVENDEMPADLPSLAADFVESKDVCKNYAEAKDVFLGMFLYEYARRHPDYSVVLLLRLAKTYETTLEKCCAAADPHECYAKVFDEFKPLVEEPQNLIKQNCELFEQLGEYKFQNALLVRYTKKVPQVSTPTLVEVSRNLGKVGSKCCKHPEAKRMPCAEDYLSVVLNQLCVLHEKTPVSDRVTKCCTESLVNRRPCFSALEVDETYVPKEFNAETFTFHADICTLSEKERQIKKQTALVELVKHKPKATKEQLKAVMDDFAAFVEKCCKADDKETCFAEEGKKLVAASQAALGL

human Abl SH2 domain = biological target: T2, human Abl SH2 domain (human, UniProt P00519 112-232, limits assumed); experiment: phage display selection hit, BL1 library
T2 construct: domain: SH2 domain; poly-histidine tagged in selection; tag cleaved for SPR and crystals; also called Ab1SH2; SH2 domain of Abl kinase
T2 sequence (looked up): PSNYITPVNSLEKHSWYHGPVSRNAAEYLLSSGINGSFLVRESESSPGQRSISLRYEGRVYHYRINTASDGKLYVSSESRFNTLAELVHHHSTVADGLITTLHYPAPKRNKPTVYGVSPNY

Binder | binding result (human serum albumin) | binding result (human Abl SH2 domain)
B1 | binds | –
B2 | binds | –
B3 | binds | –
B4 | binds | –
B5 | binds | –
B6 | – | binds
B7 | – | binds
B8 | binds | –
B9 | binds | –
B10 | binds | –
B11 | binds | –
B12 | binds | –
B13 | – | binds
B14 | binds | –
B15 | binds | –
B16 | binds | –
B17 | binds | –
B18 | binds | –
B19 | binds | –
B20 | binds | –

Binder | binding result (human serum albumin) | binding result (human Abl SH2 domain)
B21 | – | binds
B22 | binds | –
B23 | binds | –
B24 | binds | –
B25 | binds | –
B26 | binds | –
B27 | binds | –
B28 | binds | –
B29 | binds | –
B30 | – | binds
B31 | – | binds
B32 | – | binds
B33 | binds | –
B34 | binds | –
B35 | binds | –
B36 | binds | –
B37 | binds | –
B38 | binds | –
B39 | binds | –
